Numbering of substitutions follows the chain as printed. Names and notes keep the numbering of the source.

The chains are these.
B1: M4 (HC-K12E / LC-wt) (antibody, human IgG1, kappa)
heavy: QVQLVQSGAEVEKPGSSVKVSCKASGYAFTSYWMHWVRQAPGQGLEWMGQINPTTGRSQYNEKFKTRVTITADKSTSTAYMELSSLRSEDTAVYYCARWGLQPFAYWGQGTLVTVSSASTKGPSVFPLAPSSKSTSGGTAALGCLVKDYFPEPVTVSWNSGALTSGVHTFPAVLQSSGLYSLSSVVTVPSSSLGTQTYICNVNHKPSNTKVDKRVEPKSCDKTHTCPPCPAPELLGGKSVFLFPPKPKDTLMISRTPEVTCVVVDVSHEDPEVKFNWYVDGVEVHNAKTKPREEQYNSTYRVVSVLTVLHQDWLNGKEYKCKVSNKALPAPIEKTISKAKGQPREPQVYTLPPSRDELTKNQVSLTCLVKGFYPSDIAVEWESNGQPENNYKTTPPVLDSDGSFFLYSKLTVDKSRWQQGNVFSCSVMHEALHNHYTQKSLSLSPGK
light: DIQMTQSPSFLSASVGDRVTITCKASQDVSTAVAWYQQKPGKAPKLLIYSASYRYTGVPSRFSGSGSGTDFTLTISSLQPEDFATYYCQQHYSTPWTFGGGTKVEIKRTVAAPSVFIFPPSDEQLKSGTASVVCLLNNFYPREAKVQWKVDNALQSGNSQESVTEQDSKDSTYSLSSTLTLSKADYEKHKVYACEVTHQGLSSPVTKSFNRGEC
notes: IgG1-P238K; two production batches; also called HC4/LC1; M4-b
B2: M13 (HC-E46K,E62K / LC-wt) (antibody, human IgG1, kappa)
heavy: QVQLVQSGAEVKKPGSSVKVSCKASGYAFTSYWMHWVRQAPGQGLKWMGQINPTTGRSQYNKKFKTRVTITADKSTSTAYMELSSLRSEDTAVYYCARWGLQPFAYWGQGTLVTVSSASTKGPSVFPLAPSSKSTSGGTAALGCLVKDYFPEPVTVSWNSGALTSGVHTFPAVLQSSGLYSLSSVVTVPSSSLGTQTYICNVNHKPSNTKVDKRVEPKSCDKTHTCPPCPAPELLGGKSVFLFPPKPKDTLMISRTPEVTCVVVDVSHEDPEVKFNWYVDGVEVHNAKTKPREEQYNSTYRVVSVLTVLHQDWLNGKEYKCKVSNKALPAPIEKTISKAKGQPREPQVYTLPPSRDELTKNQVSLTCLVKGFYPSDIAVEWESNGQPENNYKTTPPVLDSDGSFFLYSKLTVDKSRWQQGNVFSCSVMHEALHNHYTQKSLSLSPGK
light: B1 light
notes: IgG1-P238K; proof of concept control with more positive charge; also called HC13/LC1
B3: M54 (HC-K12V,K19S,K23A / LC-K45Q,R54Q,R61Q) (antibody, human IgG1, kappa, V domains shown)
VH: QVQLVQSGAEVVKPGSSVSVSCAASGYAFTSYWMHWVRQAPGQGLEWMGQINPTTGRSQYNEKFKTRVTITADKSTSTAYMELSSLRSEDTAVYYCARWGLQPFAYWGQGTLVTVSS
VL: DIQMTQSPSFLSASVGDRVTITCKASQDVSTAVAWYQQKPGKAPQLLIYSASYQYTGVPSQFSGSGSGTDFTLTISSLQPEDFATYYCQQHYSTPWTFGGGTKVEIKR
notes: IgG1-P238K; also called HC6/LC4
B4: M49 (HC-wt / LC-K45Q,R54Q,R61Q) (antibody, human IgG1, kappa)
heavy: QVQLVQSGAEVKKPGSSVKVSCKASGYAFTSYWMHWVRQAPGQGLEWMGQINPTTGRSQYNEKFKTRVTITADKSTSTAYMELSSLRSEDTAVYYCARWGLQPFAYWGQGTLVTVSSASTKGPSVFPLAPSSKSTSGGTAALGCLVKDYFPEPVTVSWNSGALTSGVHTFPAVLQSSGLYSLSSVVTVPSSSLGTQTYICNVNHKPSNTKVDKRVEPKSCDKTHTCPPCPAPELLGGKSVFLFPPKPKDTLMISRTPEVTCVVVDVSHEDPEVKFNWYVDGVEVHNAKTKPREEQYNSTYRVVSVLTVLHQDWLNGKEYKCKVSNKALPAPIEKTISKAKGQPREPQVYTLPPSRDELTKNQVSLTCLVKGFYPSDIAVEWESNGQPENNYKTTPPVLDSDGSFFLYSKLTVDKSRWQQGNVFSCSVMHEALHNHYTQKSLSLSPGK
light: B1 light with K45Q, R54Q, R61Q
notes: IgG1-P238K; also called HC1/LC4
B5: M80 (HC-K63Q / LC-R61Q) (antibody, human IgG1, kappa, V domains shown)
VH: B3 VH with V12K, S19K, A23K, K63Q
VL: B3 VL with Q45K, Q54R
notes: IgG1-P238K; also called HC16/LC5
B6: M37 (HC-K12E,K13Q,K23E / LC-K45E) (antibody, human IgG1, kappa)
heavy: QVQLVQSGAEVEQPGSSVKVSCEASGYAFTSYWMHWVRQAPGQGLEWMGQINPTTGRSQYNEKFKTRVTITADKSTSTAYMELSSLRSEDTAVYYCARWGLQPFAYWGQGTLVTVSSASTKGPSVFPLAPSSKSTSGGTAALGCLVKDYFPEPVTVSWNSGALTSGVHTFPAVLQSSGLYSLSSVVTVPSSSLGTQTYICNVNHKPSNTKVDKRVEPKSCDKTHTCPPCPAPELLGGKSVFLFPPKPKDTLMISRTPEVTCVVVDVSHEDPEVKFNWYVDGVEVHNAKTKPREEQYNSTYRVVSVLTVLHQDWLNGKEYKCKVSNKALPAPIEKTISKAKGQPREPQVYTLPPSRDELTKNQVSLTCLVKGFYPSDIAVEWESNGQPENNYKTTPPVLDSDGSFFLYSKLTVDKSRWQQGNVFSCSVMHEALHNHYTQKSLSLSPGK
light: B1 light with K45E
notes: IgG1-P238K; also called HC5/LC3
B7: M63 (HC-R67Q / LC-K45Q,R54Q,R61Q) (antibody, human IgG1, kappa, V domains shown)
VH: B3 VH with V12K, S19K, A23K, R67Q
VL: B3 VL
notes: IgG1-P238K; also called HC15/LC4
B8: M53 (HC-K12E,K13Q,K23E / LC-K45Q,R54Q,R61Q) (antibody, human IgG1, kappa)
heavy: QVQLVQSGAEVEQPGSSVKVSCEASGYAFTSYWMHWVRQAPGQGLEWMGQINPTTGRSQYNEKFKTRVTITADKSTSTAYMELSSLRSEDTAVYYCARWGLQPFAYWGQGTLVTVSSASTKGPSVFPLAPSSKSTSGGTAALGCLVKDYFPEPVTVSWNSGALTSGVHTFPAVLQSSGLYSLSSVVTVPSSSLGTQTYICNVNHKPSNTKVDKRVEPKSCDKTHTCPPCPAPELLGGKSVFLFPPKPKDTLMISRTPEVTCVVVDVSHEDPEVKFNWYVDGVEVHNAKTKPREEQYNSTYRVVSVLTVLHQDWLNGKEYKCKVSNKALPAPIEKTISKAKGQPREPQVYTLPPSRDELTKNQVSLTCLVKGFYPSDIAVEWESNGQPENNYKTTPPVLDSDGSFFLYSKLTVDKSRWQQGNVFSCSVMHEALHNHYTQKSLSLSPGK
light: B1 light with K45Q, R54Q, R61Q
notes: IgG1-P238K; also called HC5/LC4
B9: M62 (HC-K74T / LC-K45Q,R54Q,R61Q) (antibody, human IgG1, kappa, V domains shown)
VH: B3 VH with V12K, S19K, A23K, K74T
VL: B3 VL
notes: IgG1-P238K; also called HC14/LC4
B10: M38 (HC-K12V,K19S,K23A / LC-K45E) (antibody, human IgG1, kappa, V domains shown)
VH: B3 VH
VL: B3 VL with Q45E, Q54R, Q61R
notes: IgG1-P238K; also called HC6/LC3
B11: M33 (HC-wt / LC-K45E) (antibody, human IgG1, kappa)
heavy: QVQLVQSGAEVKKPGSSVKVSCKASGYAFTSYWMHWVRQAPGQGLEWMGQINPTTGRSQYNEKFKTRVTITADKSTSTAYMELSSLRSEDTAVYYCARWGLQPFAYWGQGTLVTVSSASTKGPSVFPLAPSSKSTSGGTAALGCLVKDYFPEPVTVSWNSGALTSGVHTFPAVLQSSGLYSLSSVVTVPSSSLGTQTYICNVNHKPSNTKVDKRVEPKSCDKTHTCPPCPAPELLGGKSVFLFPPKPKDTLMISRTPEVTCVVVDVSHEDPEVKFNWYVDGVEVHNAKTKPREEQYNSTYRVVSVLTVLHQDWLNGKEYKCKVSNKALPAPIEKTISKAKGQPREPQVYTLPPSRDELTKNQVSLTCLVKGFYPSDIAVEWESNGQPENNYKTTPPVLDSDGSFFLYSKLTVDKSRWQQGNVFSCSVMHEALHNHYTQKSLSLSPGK
light: B1 light with K45E
notes: IgG1-P238K; also called HC1/LC3
B12: M10 (HC-R67E / LC-wt) (antibody, human IgG1, kappa)
heavy: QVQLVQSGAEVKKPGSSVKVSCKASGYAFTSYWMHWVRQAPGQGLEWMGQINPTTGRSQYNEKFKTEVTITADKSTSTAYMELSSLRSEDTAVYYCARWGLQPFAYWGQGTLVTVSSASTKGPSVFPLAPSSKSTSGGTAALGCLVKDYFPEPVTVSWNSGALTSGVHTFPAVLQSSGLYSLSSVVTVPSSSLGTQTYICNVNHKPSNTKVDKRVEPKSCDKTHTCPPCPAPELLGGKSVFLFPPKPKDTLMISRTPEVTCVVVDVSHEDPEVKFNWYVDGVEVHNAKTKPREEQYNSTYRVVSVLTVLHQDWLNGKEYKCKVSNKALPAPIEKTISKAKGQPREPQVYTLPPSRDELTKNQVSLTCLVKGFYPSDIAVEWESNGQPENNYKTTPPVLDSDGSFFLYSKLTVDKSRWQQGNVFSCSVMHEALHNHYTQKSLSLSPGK
light: B1 light
notes: IgG1-P238K; also called HC10/LC1
B13: M47 (HC-R67Q / LC-K45E) (antibody, human IgG1, kappa, V domains shown)
VH: B3 VH with V12K, S19K, A23K, R67Q
VL: B3 VL with Q45E, Q54R, Q61R
notes: IgG1-P238K; also called HC15/LC3
B14: M36 (HC-K12E / LC-K45E) (antibody, human IgG1, kappa)
heavy: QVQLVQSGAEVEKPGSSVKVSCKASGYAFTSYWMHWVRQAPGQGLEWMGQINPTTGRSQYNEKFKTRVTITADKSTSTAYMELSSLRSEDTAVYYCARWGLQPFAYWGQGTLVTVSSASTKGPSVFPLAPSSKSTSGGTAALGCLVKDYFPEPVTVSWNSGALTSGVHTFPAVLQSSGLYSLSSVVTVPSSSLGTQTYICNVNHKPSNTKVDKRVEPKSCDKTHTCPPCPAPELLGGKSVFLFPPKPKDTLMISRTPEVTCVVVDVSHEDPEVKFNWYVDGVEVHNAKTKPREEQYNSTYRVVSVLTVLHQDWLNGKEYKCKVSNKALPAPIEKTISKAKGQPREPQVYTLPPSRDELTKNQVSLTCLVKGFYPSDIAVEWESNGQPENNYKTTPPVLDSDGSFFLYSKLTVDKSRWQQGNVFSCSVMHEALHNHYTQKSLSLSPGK
light: B1 light with K45E
notes: IgG1-P238K; also called HC4/LC3

One test deals with T1, soluble human CD40 extracellular domain (human, UniProt P25942 21-193).
T1 construct: Produced in house; also called hCD40; soluble hCD40 extracellular domain
T1 sequence (P25942 21-193 limits assumed): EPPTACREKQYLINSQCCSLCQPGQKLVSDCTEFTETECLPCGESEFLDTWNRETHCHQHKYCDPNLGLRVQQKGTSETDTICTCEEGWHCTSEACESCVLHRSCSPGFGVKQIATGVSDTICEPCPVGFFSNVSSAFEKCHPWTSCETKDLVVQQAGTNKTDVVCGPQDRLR
As to the kind of experiment: SPR, Ab captured from supernatant on protein A, hCD40 ECD analyte. The method, boiled down:
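Biacore T200, 25 °C, PBS-T pH 7.2; antibodies (3 μg/ml, supernatants titre-normalised) captured on protein A chip 30 s. Human CD40 ECD analyte (5 and 50 nM, or 50 and 500 nM), 180 s association and 180 s dissociation at 30 μl/min; 1:1 Langmuir fit.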
For orientation: Kd means the equilibrium constant for the complex coming apart. Read a high Kd as weaker binding. B1: the Kd was 3.6 nM.
B2: the Kd is 8 nM.
The same measure, in the same setting: under B3 stands 3 nM.
On to B4, for which the Kd turned out to be 3 nM.
B5 showed a Kd of 4.1 nM.
Same read-out and setting: for B6 the value was 4.1 nM; for B7, 2.4 nM.
Still for that read-out and setting: for B8 the value was 3.2 nM; for B9, 3.1 nM; for B10, 3.9 nM.
The same measure, in the same setting: under B11 stands 4 nM.
B12 came in with a Kd of 3 nM.
B13 came in with a Kd of 3.2 nM.
In turn, B14 returned a Kd of 3.4 nM. The Kd values of the last two molecules are within 1.5-fold of each other.

A further test addresses T1, soluble human CD40 extracellular domain. Put plainly: SPR, purified Ab on protein A, 6 concentrations of hCD40 ECD. Here is the method: Additionally, to more accurately define the dissociation rate (kd), a longer dissociation time of 360 seconds (s) was used as opposed to the shorter 180 s dissociation that had been used in the supernatant screening experiment.
CD40 binding SPR: SPR studies of the purified antibodies were conducted on BIAcore™ T200 instrument (GE Healthcare, Chicago Ill.). A Series S Protein A sensor chip (GE Healthcare, Chicago Ill.) was equilibrated with SPR running buffer of 10 mM NaPO₄, 130 mM NaCl, 0.05% tween 20, (PBS-T) pH 7.2 at 25° C. The purified antibody samples were diluted to 3 μg/ml in PBS-T and captured on the protein A surface for 30 s at 10 μl/min Binding of 3.91, 7.81, 15.6, 31.3, 62.5, and 125 nM human CD40 extracellular domain (produced in house) was evaluated using association time of 180 s at 30 μl/min, followed by a dissociation time of 360 s at 30 μl/min Regeneration between cycles was accomplished using two 15 s injections of 10 mM glycine pH 1.5. […] Data were analyzed using BIAcore™ T200 evaluation software by fitting to a 1:1 Langmuir model.
The term koff denotes the rate constant with which the complex falls apart. Read a low koff as a long-lived complex. For orientation: kon means the second-order rate constant of association. Low values mean slower complex formation, high ones faster complex formation. On to B1, for which the Kd turned out to be 2.8 nM, the koff was 0.00069 s⁻¹ and the kon turned out to be 250000 M⁻¹ s⁻¹.
On the same counts, the results for B2 are 8.4 nM, 0.00068 s⁻¹ and 81000 M⁻¹ s⁻¹.
Turning to B3, binding was put at a Kd of 2.3 nM, the koff amounted to 0.00075 s⁻¹ and the kon amounted to 330000 M⁻¹ s⁻¹.
In the same order, the values of B4 are 2.2 nM, 0.0007 s⁻¹ and 320000 M⁻¹ s⁻¹.
Consider B5, for which the affinity, expressed as Kd, was 2.9 nM; the koff is 0.0007 s⁻¹; the kon stood at 240000 M⁻¹ s⁻¹.
Take B6: the Kd came to 3.3 nM, the off-rate (koff) came to 0.00084 s⁻¹ and the kon came out at 250000 M⁻¹ s⁻¹.
Take B7: the Kd came out at 1.8 nM, the koff is 0.00073 s⁻¹ and the kon is 400000 M⁻¹ s⁻¹.
In the same order, the values of B8 are 2.5 nM, 0.0008 s⁻¹ and 320000 M⁻¹ s⁻¹.
Turning to B9, the Kd stood at 2.2 nM, the koff was found to be 0.00066 s⁻¹ and the on-rate constant (kon) worked out at 300000 M⁻¹ s⁻¹.
In the same order, the values of B10 are 2.8 nM, 0.00077 s⁻¹ and 280000 M⁻¹ s⁻¹.
Consider B11, for which the dissociation constant Kd was 2.9 nM, the koff turned out to be 0.00073 s⁻¹ and the kon came out at 260000 M⁻¹ s⁻¹.
With B12, the Kd was 2.3 nM, the koff was 0.00067 s⁻¹ and the kon came to 290000 M⁻¹ s⁻¹.
B13 yielded a Kd of 2.2 nM, a dissociation rate constant (koff) of 0.00074 s⁻¹ and a kon of 330000 M⁻¹ s⁻¹.
For B14, binding was put at a Kd of 2.6 nM, the koff amounted to 0.00078 s⁻¹ and the kon is 300000 M⁻¹ s⁻¹.

In the next test the target is human CD40 on primary human tonsillar B cells (human, UniProt P25942 21-277). Put plainly: cell-based or functional assay.
Sequence of human CD40 on primary human tonsillar B cells (P25942 21-277 limits assumed): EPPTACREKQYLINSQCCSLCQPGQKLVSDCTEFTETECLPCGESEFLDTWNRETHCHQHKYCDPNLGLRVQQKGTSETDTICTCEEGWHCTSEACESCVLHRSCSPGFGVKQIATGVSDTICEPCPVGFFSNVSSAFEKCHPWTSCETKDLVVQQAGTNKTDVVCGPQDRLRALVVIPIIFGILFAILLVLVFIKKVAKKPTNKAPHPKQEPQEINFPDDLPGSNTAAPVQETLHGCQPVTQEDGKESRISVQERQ
Consider B1, for which the “IC50, inhibition of tonsillar human B cell proliferation stimulated by IZ-hCD40L trimer (M4 lot 1)” value turned out to be 0.0029 µg/mL; the “IC50, inhibition of tonsillar human B cell proliferation stimulated by IZ-hCD40L trimer (M4 lot 2)” value came out at 0.0008 µg/mL; the “IC50, inhibition of tonsillar human B cell proliferation stimulated by hCD40L expressing CHO cells (M4 lot 1)” value turned out to be 0.0237 µg/mL; the “IC50, inhibition of tonsillar human B cell proliferation stimulated by hCD40L expressing CHO cells (M4 lot 2)” value amounted to 0.0396 µg/mL.
In the case of B2, the “IC50, inhibition of tonsillar human B cell proliferation stimulated by IZ-hCD40L trimer” value turned out to be 0.0033 µg/mL and the “IC50, inhibition of tonsillar human B cell proliferation stimulated by hCD40L expressing CHO cells” value is 0.0208 µg/mL.
On the same counts, the results for B3 are 0.0033 µg/mL and 0.201 µg/mL.
On the same counts, the results for B4 are 0.0007 µg/mL and 0.0672 µg/mL.
In the same order, the values of B5 are 0.0164 µg/mL and 0.369 µg/mL.
Regarding B6, the “IC50, inhibition of tonsillar human B cell proliferation stimulated by IZ-hCD40L trimer” value worked out at 0.0009 µg/mL and the “IC50, inhibition of tonsillar human B cell proliferation stimulated by hCD40L expressing CHO cells” value worked out at 0.129 µg/mL.
As to B7, the “IC50, inhibition of tonsillar human B cell proliferation stimulated by IZ-hCD40L trimer” value worked out at 0.0057 µg/mL and the “IC50, inhibition of tonsillar human B cell proliferation stimulated by hCD40L expressing CHO cells” value turned out to be 0.208 µg/mL.
On the same counts, the results for B8 are 0.0034 µg/mL and 0.367 µg/mL.
On the same counts, the results for B9 are 0.0062 µg/mL and 0.356 µg/mL.
On the same counts, the results for B10 are 0.0072 µg/mL and 0.181 µg/mL.
On to B11, for which the “IC50, inhibition of tonsillar human B cell proliferation stimulated by IZ-hCD40L trimer” value came out at 0.0009 µg/mL and the “IC50, inhibition of tonsillar human B cell proliferation stimulated by hCD40L expressing CHO cells” value was determined as 0.0575 µg/mL.
On the same counts, the results for B12 are 0.0277 µg/mL and 0.353 µg/mL.
In the same order, the values of B13 are 0.0004 µg/mL and 0.0547 µg/mL.
On the same counts, the results for B14 are 0.0026 µg/mL and 0.0477 µg/mL.

Another test concerns the target T1, soluble human CD40 extracellular domain. As to the kind of experiment: SPR, antibody captured from supernatant on protein A chip, soluble hCD40 ECD at 5 and 50 nM (summary table of the 16 chosen antibodies).
B1 yielded a Kd of 3.6 nM.
With B2, the Kd came out at 8 nM.
For the molecule B3, binding was put at a Kd of 3 nM. This Kd lies about 2.7-fold lower than the previous one.
Turning to B4, the Kd is 3 nM.
The same measure, in the same setting: under B5 stands 4.1 nM.
The same measure, in the same setting: for B6 the value was 4.1 nM; for B7, 2.4 nM; for B8, 3.2 nM.
The same measure, in the same setting: under B9 stands 3.1 nM; under B10, 3.9 nM.
With B11, the affinity, expressed as Kd, was 4 nM. This Kd and that of the molecule before are within 1.5-fold of each other.
Turning to B12, binding was characterised by a dissociation constant (Kd) of 3 nM.
The same measure, in the same setting: for B13 the value was 3.2 nM; for B14, 3.4 nM.

These data come from patent US20230203177A1 (Bristol-Myers Squibb, published 2023).
